From the DeepSol protein solubility set

Experiment: soluble on expression in E. coli; label from the status in PepcDB or PDB records

Sequence	soluble on expression in E. coli
MGDCDIEGKDGKQYESVLMVSIDQLLDSMKEIGSNCLNNEFNFFKRHICDANKEGMFLFRAARKLRQFLKMNSTGDFDLHLLKVSEGTTILLNCTGQVKGRKPAALGAAQPTKSLEENKSLKEQKKLNDLCFLKRLLQEIKTCWNKILMGTKEH	soluble
EESPFVGNPGNITGARGLTGTLRCQLQVQGEPPEVHWLRDGQILELADSTQTQVPLGEDEQDDWIVVSQLRITSLQLSDTGQYQCLVFLGHQTFVSQPGYVGLEGLPYFLEEPEDRTVAANTPFNLSCQAQGPPEPVDLLWLQDAVPLATAPGHGPQRSLHVPGLNKTSSFSCEAHNAKGVTTSRTATITVLPQQ	soluble
NGEHTTDIEEQYLEAIRGATQRITLANAYFFPSYRFLRELRNASRRGVKVTLILQGQPDMPFVRVCSRLTYTYLLRDGVVIHEYKQRALHGKVALIDQEWSTVGSSNLDPLSLALNLEANLFIRDKALNQHLQGHLMELAAAHSTQMSLKGAAR	not soluble
MRFAPFTRQRHHNREQIKQHPEWFPAPLKASDRRWQALAENNHFLSSDHLHNITEVAIHRLEQQLGKPYVWGGTRPDQGFDCSGLVFYAYNKILEAKLPRTANEMYHYRRATIVANNDLRRGDLLFFHIHSREIADHMGGYLGDGQFIESLRTGETIRVSRLAEPFWQDHFLGARRILTEEMIL	not soluble
MGSDKIHHHHHHMKSLLAIYPGSIVSEELCIREGCLCFFDESNQRYISIPKTEISEKEVLVLQSFLTPADEGNQLSMKSPEENKWFSFLFSRGELPAYIKKRTRFVHFHLFGKIERTSFTEAVRHFWPVSFVIVWIHEDRGVIVEQESEAAAEKDELESLAKVLESDFYFSVRFYAGRFYEPDECLRKHYAREQAYFLFAEKRLPQVQSVTFEMIFPFLLLETEKEKLETLLSEEAELLFGSESELRKTIKLFIENNSNVTLTAKKLHLHRNSLQYRIDKFIERSGIDIKSYKGALLAYFICLQNESSE	not soluble
MSLNGPLKIGYYKIGAAYRDGKGYDVDMVRELARRLGCPIANETELPRLRALKMLETGQIDVSASTLATPDRLQYAWIYQYNHAKNMVLLNPAIQARTLATLLEDPALRWGAIRGYHHGPSQDKLLEELNARHKVVIANDEDDLYKMLGNGVVTAVFAQPFSYGRWLRELPNPNQIVVLDLYPETDMVASGLALSKARFSREAAEKWHQELLKMYQDGSLYDIMRRYLNEGHHHHHH	not soluble
MKILLIGASGTLGSAVKERLEKKAEVITAGRHSGDVTVDITNIDSIKKMYEQVGKVDAIVSATGSATFSPLTELTPEKNAVTISSKLGGQINLVLLGIDSLNDKGSFTLTTGIMMEDPIVQGASAAMANGAVTAFAKSAAIEMPRGIRINTVSPNVLEESW	not soluble
TVAEPKAINATQPLLLDAVRGKEVERPPVWLMRQAGRYMKSYQLLCEKYPLFRDRSENVDLVVEISLQPWKVFRPDGVILFSDILTPLSGMNIPFDIIKGKGPVIFDPLRTAADVEKVREFIPEKSVPYVGEALTILRKEVNNQAAVLGFVGAPFTLASYVVEGGSSKNFTKIKRLAFAEPKVLHALLQKFATSMAKYIRYQADSGAQAVQIFDSWATELSPVDFEEFSLPYLKQIVDSVKLTHPNLPLILYASGSGGLLERLPLTGVDVVSLDWTVDMADGRRRLGPNVAIQGNVDPGVLFGSKEFITNRINDTVKKAGKGKHILNLGHGIKVGTPEENFAHFFEIAKGLRY	soluble
MVESKATLEEYVQTQLLQNWIYNDGAYLSLAFDAMCEGNFDRLCELDWQLSATKVARESREGSFKLGVRLLKIFIRYETHTLLTAYQQAIAEKRVQGYFPIVFAMVAQAMGLSKADTLYAFYYNAAVGVITNGVKLIPLSQMDGQDILFDLRGSLVQAVELSLDPDEEWLGAATLANDIRAMQHEVLYTRLYMSLEHHHHHH	not soluble
MRQVTIPLIQSKSMFCVIYRSSKRDQTYLYVEKKDDFSRVPEALMKGFGQPQLAMMLPLDGRKKLVNAELEKVKQALSEQGYYLQLPPPPEDLLKQHLSSVGQNTSPADR	not soluble
MRVLTKKTEEEIRRDFFGPVQEAACKPYLLDVDPRKSWCELSELRLSTLICEFKPIGINKHFHLIGIIERMGKVFDNENAQVEIFLSEENRVAFRNQQRDLLMGGRPERTSYPPKYLCRPSLEMIEDKLKKWFGLRFCEENESYPSEFNSVTDYELPEYIMAEVRELSDKRAERERNTDNGIVESEKKSTIPRRLTEEDENYDIQT	not soluble
FTSPAVKRLLGWKQGDEEEKWAEKAVDALVKKLKKKKGAMEELEKALSCPGQPSNCVTIPRSLDGRLQVSHRKGLPHVIYCRVWRWPDLQSHHELKPLECCEFPFGSKQKEVCINPYHYKRVES	soluble
SLILHAQAKHGKPGLPWLVFLHGFSGDCHEWQEVGEAFADYSRLYVDLPGHGGSAAISVDGFDDVTDLLRKTLVSYNILDFWLVGYSLGGRVAMMAACQGLAGLCGVIVEGGHPGLQNAEQRAERQRSDRQWVQRFLTEPLTAVFADWYQQPVFASLNDDQRRELVALRSNNNGATLAAMLEATSLAVQPDLRANLSARTFAFYYLCGERDSKFRALAAELAADCHVIPRAGHNAHRENPAGVIASLAQILRF	soluble
MGSDKIHHHHHHMISQRALEAFRAVMTTGTVSAAAEELNVSQPAVSRLVRDLEEYTQLRLFSRHGGRIVATREAHEFNAEIERSFLGLRVIEQAAREIRQGRRGTVSVAVMPALAQTILPDVMADVRVSHPDFRLELLAMPTQSIVRQVATRQCPLGLTSPTHHANEVDVVKSGSLPYRCVMPDGHPLAAYEIIRLQDLSGMEFINYTDATATGRMLDHRFAHMTTPPVVNARAPISPVIAALVRKGLGVAILDPFTAQDHVNRGGVSRPVQIDEEFHWSFIKPYGEKLSSDLMAVISIFEDLSKNYA	not soluble
MESADGEIEALCSIWDGVHVESKLEASRRYLKHKIKSLEDESTSASVLIEMTVSEGYPAVSPTVTLSNPRGIGEPEFRELQRQIQEIIEQNSDEMPIICQIFQHCSDFLTENQHQNMDCSICLICLASSPIIVTACDHFMHFACFNRYLTECLTGLRQEIQDAQKHMKEQVETNIFCPVCRAQLTDSNTIHNYRENVQLMIKNCKKNQKTLKNKKRRSSTTTEDVQKTIKRWHEEQRKLSKIYEKQKEKGGIIDIEEEKKRRQFFIETTTNEETDEAESTDIAENID	not soluble
MMETQNVKDTVRQIFTEYLTANGHRKTPERYAILETIYSIDGHFDIDMLYSRMMDQENFRVSRATLYNTIILLINARLIIKHQFGTSSQYEKSYNRETHHHQICTQCGKVTEFQNEELQHAIENTKLSRFQLSHYSLYIYGLCSKCDRANKRKKVSNNNKKEK	not soluble
MGNDKRSQIFTLSRYAGILRRCLKENAMSAQKPGLHPRNRHHSRYDLATLCQVNPELRQFLTLTPAGEQSVDFANPLAVKALNKALLAHFYAVANWDIPDGFLCPPVPGRADYIHHLADLLAEASGTIPANASILDIGVGANCIYPLIGVHEYGWRFTGSETSSQALSSAQAIISSNPGLNRAIRLRRQKESGAIFNGIIHKNEQYDATLCNPPFHDSAAAARAGSERKRRNLGLNKDDALNFGGQQQELWCEGGEVTFIKKMIEESKGFAKQVMWFTSLVSRGENLPPLYRALTDVGAVKVVKKEMAQGQKQSRFIAWTFMNDEQRRRFVNRQRLEHHHHHH	not soluble
MTEEFNESMINDIKEGDKVTGEVQEIEEKQVIVAVNGAKFNGIIPISQLSTHHIDNPSDAVKVGDEIGAYVTKVEYDEENETGAYILSKRQLETEKSYEFLQEQLDNNQTIEAKVTEVVKGGLVVDVGQRGFVPASLISTDFIEDFSDFEGQVLKLKVEELDPANNRVILSRKAVEALENAEKKDELLESLNEGDVIEGKVARLTNFGAFVDIGGVDGLVHVSELSHEHVKSPEDVVSIGETVNVKIKSVDKDSERISLSIKDTLPSPFESIKGEFNEGDVIEGTVVRLANFGAFVEIKPGVQGLVHISEISHSHIGSPSEALEPGQVVSVKVLGVDVENERISLSIKATLPNENVIESDSETTQSYLDNGSDDEDNPTLGDVFGDKLKDFKFLEHHHHHH	soluble
